Laboratory results reported in article PMC4734655.

Target: recombinant human IL-8 (interleukin-8) (human)
Assay: SPR; Biacore; IL-8 immobilised on a CM5 chip by amine coupling (Fc2), BSA on the reference cell (Fc1); soluble recombinant Mtb proteins as analytes at 2.5, 5, 10 and 20 uM; 22 °C, PBS pH 7.4 with 0.005% P20; flow 5 ul/min; one-to-one model

Binder	Kd [µM]
recombinant M. tuberculosis rGlmU (His-tagged, from pHis-glmU) (enzyme) MTFPGDTAVLVLAAGPGTRMRSDTPKVLHTLAGRSMLSHVLHAIAKLAPQRLIVVLGHDHQRIAPLVGELADTLGRTIDVALQDRPLGTGHAVLCGLSALPDDYAGNVVVTSGDTPLLDADTLADLIATHRAVSAAVTVLTTTLDDPFGYGRILRTQDHEVMAIVEQTDATPSQREIREVNAGVYAFDIAALRSALSRLSSNNAQQELYLTDVIAILRSDGQTVHASHVDDSALVAGVNNRVQLAELASELNRRVVAAHQLAGVTVVDPATTWIDVDVTIGRDTVIHPGTQLLGRTQIGGRCVVGPDTTLTDVAVGDGASVVRTHGSSSSIGDGAAVGPFTYLRPGTALGADGKLGAFVEVKNSTIGTGTKVPHLTYVGDADIGEYSNIGASSVFVNYDGTSKRRTTVGSHVRTGSDTMFVAPVTIGDGAYTGAGTVVREDVPPGALAVSAGPQRNIENWVQRKRPGSPAAQASKRASEMACQQPTQPPDADQTP	5.24
recombinant M. tuberculosis rAtsG (His-tagged, from pHis-atsG) (enzyme) MTSERATGQRENLLIVHWHDLGRYLGVYHHPDVYSPRLDRLAAEGILFTRAHATAPLCTPSRGSLFTGRYPQSNGLVGLAHHGWEYRTGVQTLPQLLSESGWYSALFGMQHETSYPKRLGFDEFDVSNSYCEYVVAKAQDWLHNRVPALDGQRFLLTAGFFETHRPYPHERYRPADSAAVELPDYLPDTPEVRQDVAEFYGSIATADEAVGRLLDTLADTGLDASTWVVFVTDHGPAFPRAKSTLYDAGTGIALIIRPPTRRAMAPRVYDELFSGVDLVPTLLDLLRLEVPADVEGVSHAPALLAPDTENAAVRDHVYTAKTYHDSFDPIRAIRTKEYSYIENYAPRPLLDLPWDIQESPAGMAVAPLVKAPRPQRELYDLRADPTETNNLLAGDDSTQGVAAIAADLAVRLHDWRQRTADVIPSDFAGSRIAERYTETYLRIHRKTPTGRSAIAADRGIDEHCS	6.83
